Results reported in PMC9482650, “Quantitative fragmentomics allow affinity mapping of interactomes” (Nature Communications, 2022).
Changes are numbered by the printed parent chain.

How the values were obtained:
Experiment in all cases: holdup assay
Set-up in all cases: key: below the threshold = too weak to quantify, mostly under pKd 3.1 to 4
[1] = molecular target: AHNAK1, Q09666
[2] = molecular target: T1, APBA1_1, Q02410
T1 sequence (Q02410 651-752, limits assumed, looked up): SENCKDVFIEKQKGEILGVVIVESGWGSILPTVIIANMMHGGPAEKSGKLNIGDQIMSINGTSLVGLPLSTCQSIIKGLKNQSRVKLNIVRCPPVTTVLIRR

[3] = molecular target: ARHGEF12, Q9NZN5-2
Chain of ARHGEF12, Q9NZN5-2 (Q9NZN5 other isoform, or with tags, fused parts or gaps): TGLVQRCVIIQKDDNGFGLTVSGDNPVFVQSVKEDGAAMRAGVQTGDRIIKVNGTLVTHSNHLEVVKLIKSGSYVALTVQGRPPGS

[4] = molecular target: CASK, O14936
Chain of CASK, O14936 (O14936 487-570): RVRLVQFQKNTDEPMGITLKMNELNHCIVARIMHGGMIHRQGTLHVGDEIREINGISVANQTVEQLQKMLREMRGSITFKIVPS

[5] = molecular target: T2, DLG3_3, Q92796
T2 sequence (Q92796 374-475, limits assumed, looked up): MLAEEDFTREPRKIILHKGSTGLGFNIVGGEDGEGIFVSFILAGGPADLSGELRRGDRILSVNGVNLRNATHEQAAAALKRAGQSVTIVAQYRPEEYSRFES

[6] = molecular target: GORASP1, Q9BQQ3
Chain of GORASP1, Q9BQQ3 (Q9BQQ3 1-208): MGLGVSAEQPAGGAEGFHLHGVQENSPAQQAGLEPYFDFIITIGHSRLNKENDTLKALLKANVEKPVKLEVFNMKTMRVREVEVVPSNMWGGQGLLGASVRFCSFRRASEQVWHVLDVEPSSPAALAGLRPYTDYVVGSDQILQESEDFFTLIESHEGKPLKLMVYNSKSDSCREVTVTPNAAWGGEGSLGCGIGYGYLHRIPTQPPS

[7] = molecular target: T3, GRIP1_2, Q9Y3R0
T3 sequence (Q9Y3R0 145-248, limits assumed, looked up): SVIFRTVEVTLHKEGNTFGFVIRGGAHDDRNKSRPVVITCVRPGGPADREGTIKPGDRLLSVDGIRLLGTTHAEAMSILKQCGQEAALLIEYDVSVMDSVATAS

[8] = molecular target: T4, GRIP1_7, Q9Y3R0
T4 sequence (Q9Y3R0 999-1096, limits assumed, looked up): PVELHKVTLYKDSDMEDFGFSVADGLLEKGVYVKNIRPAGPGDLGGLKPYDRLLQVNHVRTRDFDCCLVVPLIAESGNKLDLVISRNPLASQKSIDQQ

[9] = molecular target: HTRA2, O43464
Chain of HTRA2, O43464 (O43464 355-458): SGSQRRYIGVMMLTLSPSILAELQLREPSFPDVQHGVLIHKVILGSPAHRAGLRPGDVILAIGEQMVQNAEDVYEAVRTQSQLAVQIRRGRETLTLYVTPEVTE

[10] = molecular target: Inadl_1, Q8NI35
Chain of Inadl_1, Q8NI35 (Q8NI35 113-229): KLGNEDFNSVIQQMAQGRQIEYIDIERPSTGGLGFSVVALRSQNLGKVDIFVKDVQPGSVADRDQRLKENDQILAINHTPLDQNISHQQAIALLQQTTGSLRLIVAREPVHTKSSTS

[11] = molecular target: Inadl_8, Q8NI35
Chain of Inadl_8, Q8NI35 (Q8NI35 1425-1530): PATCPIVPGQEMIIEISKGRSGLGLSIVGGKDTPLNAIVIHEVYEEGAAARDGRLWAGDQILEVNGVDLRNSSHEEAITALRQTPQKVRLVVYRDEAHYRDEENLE

[12] = molecular target: T5, LIN7B, Q9HAP6
T5 sequence (Q9HAP6 88-185, limits assumed, looked up): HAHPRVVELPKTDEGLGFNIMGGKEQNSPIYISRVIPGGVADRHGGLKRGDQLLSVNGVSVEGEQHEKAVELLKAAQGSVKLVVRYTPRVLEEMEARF

[13] = molecular target: T6, LIN7C, Q9NUP9
T6 sequence (Q9NUP9 88-185, limits assumed, looked up): T5 sequence (Q9HAP6 88-185, limits assumed, looked up) with A2S, D13E, V35I, V40I, Q65H, S79K, R89K, A96S

[14] = molecular target: LNX1_1, Q8TBB1
Chain of LNX1_1, Q8TBB1 (Q8TBB1 261-371): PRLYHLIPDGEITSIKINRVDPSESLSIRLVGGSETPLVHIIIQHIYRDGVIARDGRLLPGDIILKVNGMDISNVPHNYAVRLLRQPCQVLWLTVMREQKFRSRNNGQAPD

[15] = molecular target: MAGI2_3, Q86UL8
Chain of MAGI2_3, Q86UL8 (Q86UL8 600-682): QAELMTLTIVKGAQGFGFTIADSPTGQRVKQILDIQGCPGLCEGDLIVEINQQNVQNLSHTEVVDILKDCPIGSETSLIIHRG

[16] = molecular target: MAGI2_5, Q86UL8
Chain of MAGI2_5, Q86UL8 (Q86UL8 915-1017): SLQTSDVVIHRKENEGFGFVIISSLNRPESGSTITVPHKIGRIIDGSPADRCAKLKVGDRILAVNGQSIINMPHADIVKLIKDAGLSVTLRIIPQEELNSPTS

[17] = molecular target: MAGI3_2, Q5TCQ9
Chain of MAGI3_2, Q5TCQ9 (Q5TCQ9 398-503): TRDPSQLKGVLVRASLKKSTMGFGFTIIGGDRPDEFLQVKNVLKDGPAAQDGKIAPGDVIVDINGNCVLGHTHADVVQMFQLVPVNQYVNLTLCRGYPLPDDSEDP

[18] = molecular target: MAST1, Q9Y2H9
Chain of MAST1, Q9Y2H9 (Q9Y2H9 962-1065): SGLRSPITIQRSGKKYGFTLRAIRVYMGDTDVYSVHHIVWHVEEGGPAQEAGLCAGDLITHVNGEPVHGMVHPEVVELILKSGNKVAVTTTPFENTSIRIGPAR

[19] = molecular target: MAST2, Q6P0Q8
Chain of MAST2, Q6P0Q8 (Q6P0Q8 1099-1202): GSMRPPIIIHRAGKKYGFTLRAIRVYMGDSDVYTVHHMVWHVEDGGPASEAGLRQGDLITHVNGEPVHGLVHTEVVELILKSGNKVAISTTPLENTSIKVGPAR

[20] = molecular target: NHERF2_2, Q15599
Chain of NHERF2_2, Q15599 (Q15599 142-238): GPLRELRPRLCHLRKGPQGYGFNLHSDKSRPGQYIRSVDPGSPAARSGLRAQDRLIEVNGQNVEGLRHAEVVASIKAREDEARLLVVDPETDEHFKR

[21] = molecular target: NHERF4_1, Q86UT5-2
Chain of NHERF4_1, Q86UT5-2 (Q86UT5 other isoform, or with tags, fused parts or gaps): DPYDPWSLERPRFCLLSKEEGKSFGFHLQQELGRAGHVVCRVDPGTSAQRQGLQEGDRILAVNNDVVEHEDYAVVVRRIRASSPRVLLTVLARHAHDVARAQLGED

[22] = molecular target: PARD3_3, Q8TEW0
Chain of PARD3_3, Q8TEW0 (Q8TEW0 582-685): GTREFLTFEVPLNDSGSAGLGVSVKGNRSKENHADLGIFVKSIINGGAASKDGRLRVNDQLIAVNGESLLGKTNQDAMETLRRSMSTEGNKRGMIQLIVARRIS

[23] = molecular target: PDLIM1, O00151
Chain of PDLIM1, O00151 (O00151 1-87): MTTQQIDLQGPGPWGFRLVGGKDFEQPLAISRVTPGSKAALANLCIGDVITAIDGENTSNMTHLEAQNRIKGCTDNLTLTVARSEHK

[24] = molecular target: PTPN3, P26045
Chain of PTPN3, P26045 (P26045 505-587): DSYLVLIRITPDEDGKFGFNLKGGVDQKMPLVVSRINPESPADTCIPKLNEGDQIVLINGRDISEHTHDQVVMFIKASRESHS

[25] = molecular target: SCRIB_1, Q14160
Chain of SCRIB_1, Q14160 (Q14160 718-814): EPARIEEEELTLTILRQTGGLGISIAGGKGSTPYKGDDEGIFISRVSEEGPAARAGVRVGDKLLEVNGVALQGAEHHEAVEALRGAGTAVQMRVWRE

[26] = molecular target: SCRIB_2, Q14160
Chain of SCRIB_2, Q14160 (Q14160 857-960): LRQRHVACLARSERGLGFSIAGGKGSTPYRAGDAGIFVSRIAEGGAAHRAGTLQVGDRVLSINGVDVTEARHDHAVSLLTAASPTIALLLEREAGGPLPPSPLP

[27] = molecular target: SCRIB_3, Q14160
Chain of SCRIB_3, Q14160 (Q14160 999-1103): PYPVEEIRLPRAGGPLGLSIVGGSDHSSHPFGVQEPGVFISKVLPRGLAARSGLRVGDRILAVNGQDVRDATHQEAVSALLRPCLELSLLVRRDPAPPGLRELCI

[28] = molecular target: T7, SNTG2, Q9NY99
T7 sequence (Q9NY99 68-166, limits assumed, looked up): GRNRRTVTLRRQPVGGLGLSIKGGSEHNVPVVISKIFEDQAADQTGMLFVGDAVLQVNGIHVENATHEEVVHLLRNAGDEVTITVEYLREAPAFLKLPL

[29] = molecular target: SNX27, Q96L92
[30] = molecular target: TJP1_2, Q07157
Chain of TJP1_2, Q07157 (Q07157 181-274): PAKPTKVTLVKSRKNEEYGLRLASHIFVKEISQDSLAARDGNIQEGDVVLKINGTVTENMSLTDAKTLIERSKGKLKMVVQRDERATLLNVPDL

[31] = molecular target: T8, TJP3_3, O95049
T8 sequence (O95049 375-456, limits assumed, looked up): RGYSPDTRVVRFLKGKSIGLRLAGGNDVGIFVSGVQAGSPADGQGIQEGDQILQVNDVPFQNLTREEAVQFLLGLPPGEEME

[32] = plain residues with an end cap or a label only (N-terminal biotin on a linker: ttds)
[33] = plain residues with an end cap or a label only (N-terminal biotin on a linker: ado-ado)
[34] = plain residues with an end cap or a label only (N-terminal biotin on a linker: ahx)

TGDTLEKFVEGL [CBP, Q92793]
pKd [1, 32]: below the threshold | pKd [2, 32]: below the threshold | pKd [3, 32]: below the threshold | pKd [4, 32]: below the threshold | pKd [5, 32]: below the threshold | pKd [6, 32]: below the threshold | pKd [7, 32]: below the threshold | pKd [8, 32]: below the threshold | pKd [9, 32]: below the threshold | pKd [10, 32]: below the threshold | pKd [11, 32]: below the threshold | pKd [12, 32]: below the threshold | pKd [13, 32]: below the threshold | pKd [14, 32]: below the threshold | pKd [15, 32]: below the threshold | pKd [16, 32]: below the threshold | pKd [17, 32]: below the threshold | pKd [18, 32]: below the threshold | pKd [19, 32]: below the threshold | pKd [20, 32]: below the threshold | pKd [21, 32]: 3.71 | pKd [22, 32]: below the threshold | pKd [23, 32]: below the threshold | pKd [24, 32]: below the threshold | pKd [25, 32]: below the threshold | pKd [26, 32]: below the threshold | pKd [27, 32]: below the threshold | pKd [28, 32]: below the threshold | pKd [29, 32]: below the threshold | pKd [30, 32]: below the threshold | pKd [31, 32]: below the threshold

RGGFGRQTQI [NCBP2L, A6PVI3]
pKd [1, 33]: below the threshold | pKd [2, 33]: below the threshold | pKd [3, 33]: 4.28 | pKd [4, 33]: below the threshold | pKd [5, 33]: 3.82 | pKd [6, 33]: 3.53 | pKd [7, 33]: below the threshold | pKd [8, 33]: below the threshold | pKd [9, 33]: below the threshold | pKd [10, 33]: below the threshold | pKd [11, 33]: 3.49 | pKd [12, 33]: 3.89 | pKd [13, 33]: 3.68 | pKd [14, 33]: below the threshold | pKd [15, 33]: 3.51 | pKd [16, 33]: below the threshold | pKd [17, 33]: 4.79 | pKd [18, 33]: 4.6 | pKd [19, 33]: 5.6 | pKd [20, 33]: below the threshold | pKd [21, 33]: 3.8 | pKd [22, 33]: below the threshold | pKd [23, 33]: below the threshold | pKd [24, 33]: 4.49 | pKd [25, 33]: 3.61 | pKd [26, 33]: below the threshold | pKd [27, 33]: 4.48 | pKd [28, 33]: 3.52 | pKd [29, 33]: below the threshold | pKd [30, 33]: below the threshold | pKd [31, 33]: below the threshold

HSGSYLVTSV [APC, P25054]
pKd [1, 34]: below the threshold | pKd [2, 34]: below the threshold | pKd [3, 34]: 5.02 | pKd [4, 34]: below the threshold | pKd [5, 34]: 4.71 | pKd [6, 34]: 3.61 | pKd [7, 34]: below the threshold | pKd [8, 34]: below the threshold | pKd [9, 34]: below the threshold | pKd [10, 34]: below the threshold | pKd [11, 34]: 4.84 | pKd [12, 34]: below the threshold | pKd [13, 34]: 3.72 | pKd [14, 34]: 4.45 | pKd [15, 34]: 4.31 | pKd [16, 34]: 4.63 | pKd [17, 34]: 4.53 | pKd [18, 34]: 4.22 | pKd [19, 34]: 5.11 | pKd [20, 34]: below the threshold | pKd [21, 34]: below the threshold | pKd [22, 34]: below the threshold | pKd [23, 34]: below the threshold | pKd [24, 34]: 4.64 | pKd [25, 34]: 5.04 | pKd [26, 34]: 4.33 | pKd [27, 34]: 4.45 | pKd [28, 34]: 3.59 | pKd [29, 34]: 5.52 | pKd [30, 34]: below the threshold | pKd [31, 34]: below the threshold
